Test results from a protein production outcome set (Wang et al. 2014).

Assay: label from the status in PepcDB records

Sequence	protein production
MRVSCLSLPWHTPKALLHETITQTYLLWHIVLEHMDIVIVGAGRVGSRTARVVTNEDHAVTVIEQDYDRAERARTEGFDVVEGDGTSEDTLLDAGIDTADAIGALTSDLNTNFIACMVGNHHDCRTVLRIDEDYREDIYRKYADEVDEIVYPERLGAIGAKNALLGGNVTAIADLAEHLQVVQLTVTDEAPMRGYSISELELPAGARLLAFGKHDASLALPLPSETLETGDRIAVLAEFDTLDSVRQILVGNAPPTEVA	failed
MRVSVVIPARNEEAYLPSALEAVLAQTLPPFEVIVVDNASTDRTREVAEALGARVVFCGRRGVAYARQAGLLAARGEWVAMTDADSLPTPRWLERLAHKAPGAVAVYGPLRFYGVSPLEAALSEWGYRAFLNLMALLGRPNLAGANMMVLKEAALRVGGFPEVEAREDVLLGWRLKALGPVRYAGDALVLTSARRLQGGWGRFLLRQARNLLGDPRGYFGEAGERERLEHHHHHH	not failed
MRWLNRHKFLPFLAWLPQQSRASVGRDALVGLSGAILALPQSIAYALIAGLPPEYGLYAAIVPVLIACLWGSSWHLICGPTAAISIVLYVSVSPLAVPASQDYIMLILLLTFIAGVFQLLLGMMRFGALVNFVSHSVVLGFTLGAAVVIALGQMPNLLGIDLPSQTTALKSLSAVLEHRGELDKPSLMLGLLTLTLGIGLKAWVPRWPTLLIALVSSSLLVWLWPAMFGHVRVVSAFVGHLPPFSPLPLDLELILKLLPTAVAVGMLGLVNSLSIARSLSARSQQMLNANQEVRAQGLSNMVGSLFSGYLSAGSFTRAALSYEAGARSPLAGVFSALWVALFAVAGASLVSHIPIPAMAASILLICWGLVDRRGIRALLRVSRAEFFVMALTCLATLLLELQTAIYAGVLASLFFYLKRTSQPRVQQWREGDEDVLRVGGSIFFGASHYLQTRLQRTEGLRVVIDAQQINFIDYSGVEMLHQEARRLGQQGRVLVLRNARPLVIEELHKLEGPENCPILFED	failed
MRWNICVVGAGKIGQMIAALLKTSSNYSVTVADHDLAALAVLNRMGVATKQVDAKDEAGLAKALGGFDAVISAAPFFLTPIIAKAAKAAGAHYFDLTEDVAATNAVRALAEDSQT	not failed
MRWRSSRLGRAPLLGALAILWFAVLLPRGGTAGAGPGARGIRRSTGVCAGSRPRPAALLRRSAKVVAGFSVFGCPATAFESCVLSPAPSNSLASVFLLCLLPGLMEETIHTVSTEAFALQAEDPDHTILDVRPIAAYNGWPLQDESRSGHVPGAKSLPLQWTQYMDWVEVLDEKGLSQNAPVTVYGYTADAAAEMADKLSRLGFEAVGVYDGFLEDWAPDPDRPLQRMERYQQLVYPEWVQRLRTGETPPGMRGDDHVLCHAHFGYRQDYEDGHIPGAIPLNTNALESPETWNRRSPEELKSALEDHGIRHDTTVVLYGRFSYPTYDQDDPAQSAGHLGAMRCAALMLYAGVEDVKILNGGISTWESAGYDVSTDDVEPAPVDDFGAEVPAHPEYMLTLDEAKALLEADDGDLVSVRSWAEFIGERSGYHYIDKTGRIPGAVFGNCGSDAYHMENYRNFDYTTREFSEIAGKWAEMGITPDKHIAFYCGTGWRGSEAFMNAYLMGWPNISVYDGGWYEWSSHPDTETATGVPENDVPA	failed
MRYAVVLYPCSSFHHESVRPSRFPAPRRHPLLHRLPLAVARRLAGPGTADHFRERAGRGGAASRQRRRVPRRGRRRAAVGPQGGRRLSRAENPQAAAARPHRAGQGAGAQRPSLSAAMNAPQRKIIHVDCDCFYAAIEMRDDPSLRDVPLAVGGRPETRGVVATCNYIARRYGVHSAMSSARALRLCPELLIVPPDMARYRLASQQIMAIYQRYTEVIEPLSLDEAYLDVTGQPHERGSATLMAEAIRRQIRDEVGITASAGIAPNKFLAKVASDWNKPDGQYLIRPRDIDAFVAVLPVEKIHGVGRVTAERLHRLGIRSCGDLRRWSPADLFRHFGSFGERLLALAHGRDERPVSTDRSRKTISVEETYAQDLPDLASCLSKLPELVDRLQARLARSGSPAFKGLSVKLKFDDFSQTTVEQPGYALSMAAFGQLLRAGHARGARPARLLGVGVKLADDFDLPRQLRLFGRDGRPLPDSAPPAEAPPGGPEADSAA	failed
MSAATPQPPAPHVVLGSGPAGTALARELVRRGHPVRLVDRRATGPAVEGVERFPADVGTADGARAAIRDAAVVYHCVNVAYHLQVEVMPRVQEAVLAAVEESGARLVVLDTVYPYGETGGAVMTEDSPWKATSRKGRMRAELDERYLAAHRSGRARVVLGRSADFVGPGVLNSSLGAAVFPGALTGGDVVAMGNIDLPHSYTGIEDVAAALATLGERPDGDGRVWHLPTAPAVSTREIHALIEKRVGRPLNVVVLERPRPFGPFDEQLMAEYEEMFYQHTEAQIMDSGAFERFFEAAPTPLADTLDATVTWYEAWLRSR	failed
MSAEATPESTLPGTAAETSPDNPWPLQLLSRKLKAHIERAPAAWIEGQVIELNRRGGNAFLTLRDVDAEISLPASVWSTVLDRQKVPLERGSRVVALVKADFWVKTGRLNMSVKDIRPVGLGDLLARIERLRQALAAEGLFADSRKRKLPLLPHRIGLITGRESDAKKDVMRNAALRWPAVEFDVREVAVQGNTAVSQIIAALKRLDADPHVDVIVLARGGGALEDLLPFSNEDLIRAVSAATTPVVSAIGHEADRPILDDVADLRASTPTDAAKRIVPDVAEELAMVRQARDHLRRSISRMVDRETDRLHALRSRPVLASPASMVDARSEDIHRLQRRTHSAVSTAVVRALDQVHHLRAQVRALSPQKTLDRGYAVVQLVGEDQAGHHVVSSPDEAPDGTPLSIRVAEGRFRAVSAGAGQLVEH	failed
MSAERSRWLQCLGLPATADAIAIKTAYRQLARQWHPDCNPDPQATARFQEIQIAYERLLVLQESATAQPVPQAPPADAALIALKRQFQPQLQDLLADGRWAKAIALTEALQQRLPDDWEVRQWLAICYLRQGQALLVQQQRQQAIVYFEKARRTDPHNPRLQQEIQASHRLASARRA	failed
MSAGLVQAAYIVAALFFIMSLAGLSKQESARNGNYYGIAGMAIALIATIFSPDAQGFGWIIIAMAIGGAIGIFYAKKVEMTEMPELVAILHSFVGLAAVLVGYNSYLDAPEAATHAEHVIHLVEVFLGVFIGAVTFTGSIVAFGKLRGVISSSPLNLPHKHKMNLAAIVVSTLLMIYFVKADGSMFALIVMTLIAFAFGYHLVASIGGADMPVVVSMLNSYSGWAAAAAGFMLANDLLIVTGALVGSSGAILSYIMCKAMNRSFISVIAGGFGQEIIISSDEEQGEHRETTAEEVAEMLKNSKSVIITPGYGMAVAQAQYPVHEITDALRSQGIEVRFGIHPVAGRLPGHMNVLLAEAKVPYDIVLEMDEINDDFSETDTVLVIGANDTVNPAALEDPNSPIAGMPVLEVWNAKNVIVFKRSMNTGYAGVQNPLFFKENTSMLFGDAKESVEAIFKAL	not failed
MSAIDCIITAAGLSSRMGQWKMMLPWQQGTILDTSIKNALQFCSRIILVTGYRGNELHERYVNQSNITIIHNPDYAQGLLTSVKAAVPAVQTEHCFLTHGDMPTLTIDIFRKIWSLRNDGAILPLHNGIPGHPILVSKPCLMQAIKRPNITNMRQALLMGAHYSVEVENAEIILDIDTPDDFITVQKRYTKI	failed
MSAIDRGSGSSMEEPERPEGPLADADGRESVTDHQDTTAADTPEDATTGSAARSETGAAPDTAQAASAPSAAAAPASEPAASAAEQRDASHEAPAPGSRETPPHPAPRPAPFAPQSHAPHPAWGPPAPDQATARHGAQAYPGPEAPQPAPGRPGPPPAGGVPAGAAQGAWQERPAQHDQPNSPTGAWAVPPSPGGFFPPTGGFPTLHGSSPFEGAPPPGKPQRSGRVVLIAAVTALITSLIVGPAASVATAYFLSEQVAANPAATSAASGDVTKVAAKALPSVVSIATAEGGGSGFIIRDDGLIVTNNHVVSDAQELTVLFHDGSQASATIVGTDPVSDLAVIRAQGVSGLTPASLGDSDQVEVGAEVVAIGAPLGLSGTVTSGVVSAVERPVNTGVSGQQDSPLLPSPDEEEPQATTSTVIDAIQTDAPINPGNSGGPLVNMNGEVIGINTAIATTSGNFMSQSGSIGLGFAIPINQAKPIIEELINTGKATYAAIEASVTVAEDGPGAELVEVNRGGAADQAGLRKGDVIIRIEDRMVTDPNVLIAEIRSHRPGDTVTITYQRGGQTAQTTVTLAAQSLDN	failed
MSAKSKQYFNIFVFIISLIFFDQLSKYLVAKYVKLGSIYFSFFDDFFRIIHVRNTGILFSMGSNIHYSLKKIFFLAMPIFILIFVFYLSLKERNCIARISLLLIFSGGVGNVIDRLFRPSGVVDFLDLKFYGIFGLDRWPTFNFADSYVVIGMILFLVYDFFIKRKVLNK	failed
MSALEPDDPRSVGEYRLLGRLGAGGMGRVFLGRSPGGRLVAVKVVHAELLRRPEFRDRFRREVQAARMVSGAFTAPVVDADPDAPLPWLVTSYIAGPSLEQAVAERGPFDPQAVLTLAAGLAEALVSIHAAHLVHRDLKPSNVLLAEDGPRVIDFGIVRSVDADSLTGSGHMAGSPGFMSPEQVNGDEVTWASDVFCLGAVLAFAATGTNPFGAGPTPALLYRVVHNAPDVAAVADPALRSLIADCLAKDPAHRPAPREILARIGPLGGESATALPHAQQWTPAARPTRADAVPTRIVPPVAAPPAHQHTRVDTSPAQVYPPAPAPADVRPTATGDGGRRSRRAFLFSGAGALAALGVGTGFWLNRPADPDPAEGSAPAPSPSSAPSPPPGPVGLWPLDEASGQVARDTAGGHDGTVTGVAWQGAGEGAAFDGTGSQIVTAGPVLQTGAGRSFTVAAWVRLSAVPGVFATAVSQDSADASGFYLQYSSEDQGWAFARPGLRAVGRTAPAAHVWTHLTGVCDGPARKLHLYVNGVQEAVVEDTGPAPATGAFMIGRASFDGQPRDFFPGAIRDVRAFDRALGPARVAQLAQLG	failed
MSALREALRDLPDAVFADVLESEDEYLLVLDLPGVTAETIDVTVEGGRLRIDGQRTKDVPGEFTFVREDRSVFLDAELPLPPDTTGQGGEGTVENGVLELRLPKATAAPSTTIPIDGD	failed
MSANDKLTILWTTDNKDTVFNMLAMYALNSKNRGWWKHINIILWGASVKLVANDTQVQTEILEMLQSGITIEACQDCCENFGVASIITNLGITVRYMGIPLTEYLKNGEKILSI	not failed
MSANMHIFENPSALAEALADDVGARLAAAIAARGTASLAVSGGSTPKAFFRSLSRRELDWSKVTVTLVDERFVPPENDRSNHRLVADNLLKDGAAEARFVPLYQAAETAEAAAAIASGRTASLGAPLDVVVLGMGTDGHTASFFPGGTRLEEALDPTTPRGVITMEAEGAGEPRLTFTFSSLQDAGYLVLHIEGSGKKEVLAQAEASGDEAEMPIRAMLRRAASPLQIYWAP	failed
MSANNTAKNMHPETRAVGSETSSLQASQDEFENLVRNVDVKSRIMDQYADWKGVRYRLGGSTKKGIDCSGFVQRTFREQFGLELPRSTYEQQEMGKSVSRSNLRTGDLVLFRAGSTGRHVGIYIGNNQFVHASTSSGVIISSMNEPYWKKRYNEARRVLSRSLEHHHHHH	not failed
MSAQFMTTVPVVLYLALSFGVALWARGRTAEGGSAKDIIEEYYIGGRSMGGFVLAMTIIASYTSAGSFVGGPGVAYRLGLSWVLLAMIQVPTTFLTLGVLGKRFAIVARRAGAVTLTDYLLARYRSHTVVILCSAALLVFFMAAMLAQFIGGARLFQTVTGYPYVVGLALFGVTVVLYTAVGGFRAVVVTDAVQGIVMVVAVVVVLLAVIDAGGGMTQCIATLKAIDPGLITPTGPGDAVPQPFMLSFWVLVGLGVLGLPQTTQRCMGYRDSRAMHDAMIIGTLLIGFMILCAHLAGTLGRAVLPDLPAGDLAMPSLIVQLLSPFWAGVFIAGPLAAIMSTVDSMLLLASAAIVKDLYVRYRLGGDTSRLRPVTMKRMSVASTAVIGVLVFVAAMEPPDLLVWINLFAFGGLEAVFLWPLVLGLYWRRGNATGAIASILSGVTAFVWLTIAKPDMGGIHAIVPTTLLSLVMFVAGSLAGRPSGREVDALFGGERS	failed
